“Also recorded” adds a separate entry of the source. Read-outs that look alike come from different tables or passages of the source.
How the values were obtained:
in vivo [1] = experiment: in vivo; parameters: species or system female NMRI nude mice; conditions: female, NMRI nude, mouse, 30 kBq, total radioactivity
Experimental: (§1) The biodistribution of 225Ac-DOTA-AE105 was evaluated in female NMRI nude mice bearing subcutaneous U87 MG tumors. The U87 MG tumor cell line is a human glioblastoma cell line. Animals were stratified into two groups (A and B) based on tumor volume and body weight on study day-2. Animals in group A were injected with 30 kBq of 225Ac-DOTA-AE105 having a specific activity of 30 kBq/nmol, animals in group B received a thousand-fold dose of DOTA-AE105 (cold construct) immediately before receiving 30 kBq of 225Ac-DOTA-AE105 having a specific activity of 30 kBq/nmol. The biodistribution was evaluated using conventional ex vivo biodistribution 1 hour (1H) after injection. The results are shown in FIG. 10 as percentage injected dose per gram (% ID/g) and are corrected for radioactive decay.

[2] = tested on: subcutaneous U87 MG tumors; experiment: in vivo; parameters: species or system female NMRI nude mice; conditions: mouse
Experimental: as §1

uPAR = uPAR (Homo sapiens, UniProt Q03405); experiment: uPAR binding by Surface Plasmon Resonance (SPR); conditions: for SPR K(off) / SPR K(on): 18 degrees Celsius, HEPES pH 7.4
Experimental: Characterization of the binding properties of lead (Pb) labelled DOTA-AE105 to its target i.e. uPAR was measured by Surface Plasmon Resonance (SPR) and expressed as the binding constant (KD), which is a measure of affinity of the conjugate towards its target.
Characterizing the interaction between a target protein (in this case uPAR) and a ligand by SPR is a well-known method for the skilled person.
The target protein uPAR was captured, via a protein tag, onto a sensor chip and the test compound (Pb2+-DOTA-AE105 and Cu2+-DOTA-AE105 respectively) were dissolved in running buffer (10 mM HEPES buffer at pH 7.4, 150 mM NaCl, […]+0.05% Tween-20) and prepared in 5-point concentration series with three-fold dilution with top concentration around 500 nM of the test compound. The assay was conducted at 18 degrees Celsius.

[3] = parameters: species or system female NMRI nude mice; conditions: mouse, in vivo, 50 MBq
Experimental: The tumor binding and retention of 177Lu-DOTA-AE105 was evaluated in female NMRI nude mice bearing subcutaneous U87 MG tumors.
Animals were dosed with approximately 50 MBq 177Lu-DOTA-AE105 at study day 0. Tumor binding and retention of 177Lu-DOTA-AE105 was evaluated by SPECT/CT imaging at 0.5H, 2H and 24H after injection. The results for tumor binding and retention of 177Lu-DOTA-AE105 and the data for 67Cu-DOTA-AE105 from example 2 (table 5b) are summarized in table 6 below.

[4] = tested on: subcutaneous U87 MG tumors; experiment: Treatment efficacy of 177Lu-DOTA-AE105 in glioblastoma xenograft mice; type: in vivo, female NMRI nude mice; conditions: study day 18; group B 92.1 MBq p=0.32; group C three doses of about 30 MBq p=0.84
Experimental: Furthermore, the efficacy of 177Lu-DOTA-AE105 was tested in female NMRI nude mice bearing subcutaneous U87 MG tumors.
Animals were stratified into three groups (A, B, and C) based on tumor volume and body weight on study day 0. The mean inclusion volume was […] (range 15.0-339.0 mm^3), while the inclusion weight was 23.6±0.4 g (range […]).
Animals were dosed with either vehicle (group A) or 177Lu-DOTA-AE105 (group B, and C) at different activity levels on study day 0. Animals in group B received 92.1±1.7 MBq, animals in group C received 32.9±0.4 MBq. At study day 4 animals in group C received an additional dosing with 26.7±0.2 MBq and at study day 8 animals in group C were dosed with 30.7±0.2 MBq. Doses are calculated by retracting residual dose from the activity measured before injection. No decay correction has been applied.
Tumor volume and body weight was monitored twice a week after the first dosing. The efficacy was evaluated over a period of 5 weeks after first dosing. Each of the treatment groups were compared to the vehicle control group A.
Differences in tumor volume were evaluated at the latest timepoint where minimum 50% of animals were alive within each of the compared groups.

tumor = conditions: in vivo; cited from earlier work
in vivo [5] = experiment: in vivo; parameters: species or system female NMRI nude mice; conditions: female, NMRI nude, mouse, iv, total radioactivity
Experimental: (§2) The biodistribution of 67Cu-DOTA-AE105 was evaluated in female NMRI nude mice bearing subcutaneous U87 MG tumors. The U87 MG tumor cell line is a human glioblastoma cell line. Animals were stratified into four groups (A, B, C, D) based on tumor volume and body weight on study day-2. Animals in group A were injected with 26.4±0.4 MBq, animals in group B received 55.1±0.2 MBq, animals in group C received 54.3±0.5 MBq and animals in group D received 55.2±0.2 MBq (mean±SEM). The biodistribution was evaluated using SPECT/CT imaging, 2H, 24H, 48H, 96H and 168H after injection. Furthermore, conventional ex vivo biodistribution was evaluated after final imaging timepoints 96H and 168H.
(§3) The results are shown in FIG. 1 as percentage injected dose per gram (% ID/g) and are corrected for radioactive decay. The data in FIG. 1 are derived from the in vivo SPECT/CT imaging.

[6] = tested on: subcutaneous U87 MG tumors; experiment: in vivo; parameters: species or system female NMRI nude mice; conditions: mouse; remark: listed apart in the source
Experimental: as §2, §3

uPAR, sequence (Q03405 23-305): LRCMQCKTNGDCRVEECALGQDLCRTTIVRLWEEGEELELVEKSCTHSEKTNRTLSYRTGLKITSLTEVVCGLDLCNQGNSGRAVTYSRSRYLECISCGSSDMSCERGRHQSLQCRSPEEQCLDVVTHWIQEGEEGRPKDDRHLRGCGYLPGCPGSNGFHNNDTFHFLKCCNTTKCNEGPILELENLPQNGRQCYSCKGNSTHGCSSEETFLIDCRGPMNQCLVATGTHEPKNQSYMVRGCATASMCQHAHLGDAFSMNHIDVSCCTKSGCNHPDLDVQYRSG

## CC(C)C[C@H](NC(=O)[C@H](Cc1ccc(O)cc1)NC(=O)C(CCCNC(=N)N)NC(=O)C(CO)NC(=O)C(Cc1ccccc1)NC(=O)[C@H](CC1CCCCC1)NC(=O)[C@H](CC(=O)O)NC(=O)CN1CCN(CC(=O)O)CCN(CC(=O)O)CCN(CC(=O)O)CC1)C(=O)N[C@@H](Cc1c[nH]c2ccccc12)C(=O)N[C@@H](CO)C(N)=O (single isomer, unassigned) [225Ac-DOTA-AE105, metal not drawn]
In vivo [1]
  tissue uptake at 1 h: 3 %ID/g
[2]
  Tumor binding, times higher compared to 177Lu-DOTA-AE105: approximately 5 times

## CC(C)C[C@H](NC(=O)[C@H](Cc1ccc(O)cc1)NC(=O)[C@@H](CCCNC(=N)N)NC(=O)[C@@H](CO)NC(=O)[C@H](Cc1ccccc1)NC(=O)[C@H](CC1CCCCC1)NC(=O)[C@@H](CC(=O)O)NC(=O)CN1CCN(CC(=O)O)CCN(CC(=O)O)CCN(CC(=O)O)CC1)C(=O)N[C@@H](Cc1c[nH]c2ccccc12)C(=O)N[C@@H](CO)C(N)=O [Pb2+-DOTA-AE105]
uPAR
  SPR K(off): 1.78
  SPR K(on): 0.102
uPAR; ratio of KD
  Affinity fold higher than Cu2+-DOTA-AE105: more than 10 fold

## CC(C)C[C@H](NC(=O)[C@H](Cc1ccc(O)cc1)NC(=O)[C@@H](CCCNC(=N)N)NC(=O)[C@@H](CO)NC(=O)[C@H](Cc1ccccc1)NC(=O)[C@H](CC1CCCCC1)NC(=O)[C@H](CC(=O)O)NC(=O)CN1CCN(CC(=O)O)CCN(CC(=O)O)CCN(CC(=O)O)CC1)C(=O)N[C@@H](Cc1c[nH]c2ccccc12)C(=O)N[C@@H](CO)C(N)=O [177Lu-DOTA-AE105, metal not drawn]
[3]
  tissue uptake at 0.5 h: 0.749 ± 0.166 %ID/g
  tissue uptake at 2 h: 0.128 ± 0.011 %ID/g
  tissue uptake at 24 h: 0.098 ± 0.001 %ID/g
[4]
  Tumor volume compared to vehicle control group / therapeutic effect: no significant difference; also recorded: did not show any therapeutical effect
tumor
  Tumor binding and tumor retention compared to the peptide alone: vastly decreased

## CC(C)C[C@H](NC(=O)[C@H](Cc1ccc(O)cc1)NC(=O)C(CCCNC(=N)N)NC(=O)C(CO)NC(=O)C(Cc1ccccc1)NC(=O)[C@H](CC1CCCCC1)NC(=O)[C@H](CC(=O)O)NC(=O)CN1CCN(CC(=O)O)CCN(CC(=O)O)CCN(CC(=O)O)CC1)C(=O)N[C@@H](Cc1c[nH]c2ccccc12)C(=O)N[C@@H](CO)C(N)=O (single isomer, unassigned) [67Cu-DOTA-AE105, metal not drawn]
In vivo [5]; 30 MBq
  tissue uptake at 2 h: 5.31 ± 0.73 %ID/g
  tissue uptake at 24 h: 5.02 ± 0.08 %ID/g
  tissue uptake at 48 h: 3.44 ± 0.11 %ID/g
  tissue uptake at 96 h: 1.74 ± 0.22 %ID/g
  tissue uptake at 168 h: 0.88 ± 0.15 %ID/g
In vivo [5]; 60 MBq
  tissue uptake at 2 h: 6.61 ± 1.11 %ID/g
  tissue uptake at 24 h: 6.47 ± 0.5 %ID/g
  tissue uptake at 48 h: 4.24 ± 0.14 %ID/g
  tissue uptake at 96 h: 1.7 ± 0.07 %ID/g
  tissue uptake at 168 h: 0.64 ± 0.05 %ID/g
[6]
  Tumor binding, times higher compared to 177Lu-DOTA-AE105: approximately 50 times
  Uptake in other organs such as heart, kidney, and muscle: low uptake

## CC(C)C[C@H](NC(=O)[C@H](Cc1ccc(O)cc1)NC(=O)[C@@H](CCCNC(=N)N)NC(=O)[C@@H](CO)NC(=O)[C@H](Cc1ccccc1)NC(=O)[C@H](CC1CCCCC1)NC(=O)[C@@H](CC(=O)O)NC(=O)CN1CCN(CC(=O)O)CCN(CC(=O)O)CCN(CC(=O)O)CC1)C(=O)N[C@@H](Cc1c[nH]c2ccccc12)C(=O)N[C@@H](CO)C(N)=O [Cu2+-DOTA-AE105]
uPAR
  SPR K(off): 19.95
  SPR K(on): 0.110

— patent publication US20260224762A1, “RADIONUCLIDE LABELLED PEPTIDE CONJUGATE FOR SITE-SPECIFIC UPAR-TARGETING” (CURASIGHT A/S, priority 2023, published 2026)
